From the RNAGym collection of RNA variant scans (doi:10.7554/elife.90254)

B1: LINE1-full (parent)
chain: UACGUAGGUGGUUUUCCCCUGAUAGUGCUAAGGGGGCCUGGAAGUUUGGACUGGGCAGAGCUCAACACAGCGUGGCAAAGUGGCUGUGGCUAGACUGCCUCUCUGGAUUCCUCGUCACUCAGCAGGGCAUCUCUGAGAGAAAUGCC

Variants of: B1
Assay: self-cleavage, relative activity (ratio to wild type); higher = more cleavage; in vitro, sequencing; the parent is a self-cleaving ribozyme

Variant | self-cleavage
A2U U29C | 0.98
U12A U115A | 1.58
C18U U134G | 1.95
A67U C110U | 0.14
G54A A117U | 1.1
U46C C133U | 1.13
A6G U15G | 0.97
U15A U45C | 0.66
G32A U85C | 0.16
A31U U45C | 1.17
U45A G114U | 1.46
U12G A30G | 1.2
A50U U87A | 0.1
U1C A140G | 0.99
U39C A94G | 0.11
A94U A124U | 0.35
A57U A67G | 0.12
G83U U108C | 1.07
U29A U47C | 0
A30G G126C | 1.72
C3U A59G | 0.1
A107C U143C | 1.67
A79U C116A | 1.49
A30G G53A | 0.94

Variant | self-cleavage
A31G A57U | 0.3
A31G G126A | 1.32
G114U A136G | 1.49
U12A A92G | 0
U13G G105A | 0.74
G93U A140G | 0.05
A43C U100C | 1.99
U1G A138G | 1.57
U20C G54U | 0.91
U12C U132C | 1.13
U96C G106U | 0.06
U39A U52C | 1.72
G74A U130G | 1.51
A31G A77G | 2.49
A65G U73C | 0.06
U39A C63U | 0.43
C103A A138G | 1.6
G21A U91C | 0.35
A117C C128U | 1.3
U29A U81C | 0.92
C99A | 0.4
G36U A107G | 0.9
A50G U104A | 0.85
C37U A79C | 1.22

Variant | self-cleavage
U9G A136G | 0.68
U73G U85G | 0.06
G27U G82A | 1.51
A92U U115C | 0.72
G34U A129G | 1.98
U23C A57U | 0.18
U12C A42G | 1.48
U46A U134G | 0.84
U23A U45A | 1.28
A42G G122A | 0.92
U29A A129G | 1.11
A30G U52C | 1.53
U45C U47C | 1.23
A31U C37A | 1.53
G11U A69G | 0.44
U102C G122U | 1.63
U39C A140G | 1.3
G55A | 0.19
C19U U47C | 0.98
G32U A77G | 3
G58A | 0.05
U14A A136U | 1.19
G34U U73A | 2.36
U26A A67U | 0.03

Variant | self-cleavage
G40A U112C | 0.89
U14C U109G | 0.65
A22U G126A | 1.5
G93A A141G | 0.04
G7U U15A | 0.97
G8U A136G | 0.46
G72A G137A | 0.46
U12C A107G | 0.99
U39C U47A | 1.15
U85C G89A | 0.03
A31U U108C | 1.3
G4A A140C | 0.27
U134C U143A | 1.37
U46A A50G | 0.87
A42C U134A | 0.83
U23G C90G | 0.03
A57G A65C | 0.05
U81G A140U | 1.35
C123U A129G | 1.37
U26A G44A | 1
A117U U143A | 1.23
U100C C110A | 1.77
U1A A43U | 0.68
G27C G54U | 0.17

Variant | self-cleavage
C18A U104A | 0.85
A30G A141C | 0.82
A6G U96C | 0.41
U62C U96C | 0.06
U13C G83U | 0.27
A22G C133U | 0.58
U14A G34A | 0.78
G25A U130C | 0.8
U62A G144A | 0.05
G21U C51A | 1.48
A30G A121U | 0.84
C76U A129G | 2.87
U47A A124G | 0.79
U87C G88A | 0.09
A30U U134A | 0.68
A50U U100C | 0.81
A117G G125A | 0.99
U81A U134C | 2.26
C28U U46C | 1.21
U26A G127U | 1.16
A117U U119A | 0.99
U15C G135U | 1.21
U5C C18G | 0.99
U23A G144A | 1.85

Variant | self-cleavage
C17U A42G | 1.36
U5C A69U | 0.14
A2U C111A | 0.68
A50G U96C | 0.1
U13C G35C | 1.24
G72C A136G | 1.41
U20C A79G | 1.5
A79G A138C | 2.4
G7U A141G | 1.62
C120A A121G | 1.39
U85A U109A | 0.06
A107C U109C | 2.7
A92C C113U | 0.14
A67C U134A | 0.02
G41A U85A | 0
A2G U87C | 0.35
U15A G125U | 0.89
U109A A136U | 2.61
U46G U62C | 0
G33U U143C | 0.61
U46C A57U | 0.17
C95A U100C | 0.09
U26A U119C | 0.97
U5C A31U | 0.78

Variant | self-cleavage
U112C G122U | 1.86
U15G U132C | 1.81
A6G G25U | 0.69
G32A U143C | 1.4
U5A A6G | 2.12
U14A A138U | 1.07
U5C G55A | 0.5
U9C U109A | 1.37
U9C U109C | 0.99
U52C U73C | 0.54
U15G U119A | 1.01
A50G U132A | 1.34
G8A C37A | 0.87
C56U A78U | 0.15
U13G U143A | 1.33
A31G A94G | 0.94
U5C U12C | 0.86
A50U C120A | 1.46
A59G A121C | 0.09
U9C C51A | 0.63
U62C U119C | 0.07
C18U U100C | 1.53
G4A A121U | 1.22
